# Assay results taken from US20250066478A1 (IBIO, published 2025).
# T1: MUC16 membrane-proximal region (UniProt Q8WXI7 13810-14451)
# T1 construct: domain: membrane-proximal region
# T1 sequence: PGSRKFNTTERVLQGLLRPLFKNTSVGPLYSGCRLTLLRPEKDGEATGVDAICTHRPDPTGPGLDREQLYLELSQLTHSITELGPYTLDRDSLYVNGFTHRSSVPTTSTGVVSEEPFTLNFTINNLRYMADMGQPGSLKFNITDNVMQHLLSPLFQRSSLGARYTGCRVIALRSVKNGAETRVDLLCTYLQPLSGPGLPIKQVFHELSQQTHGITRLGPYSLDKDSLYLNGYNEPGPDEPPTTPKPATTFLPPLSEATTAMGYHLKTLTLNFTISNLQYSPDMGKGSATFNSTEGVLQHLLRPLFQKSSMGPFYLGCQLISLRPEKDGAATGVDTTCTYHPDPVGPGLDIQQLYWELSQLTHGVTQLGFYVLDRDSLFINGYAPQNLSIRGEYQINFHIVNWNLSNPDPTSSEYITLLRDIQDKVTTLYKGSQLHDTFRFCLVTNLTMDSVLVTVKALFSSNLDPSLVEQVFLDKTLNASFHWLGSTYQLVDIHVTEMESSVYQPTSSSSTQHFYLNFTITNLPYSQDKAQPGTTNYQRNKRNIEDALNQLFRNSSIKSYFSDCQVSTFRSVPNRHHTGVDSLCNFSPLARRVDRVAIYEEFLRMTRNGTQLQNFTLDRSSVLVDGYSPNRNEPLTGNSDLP
# Target: T1, MUC16 membrane-proximal region
# Assay: FIG. 7A; method not named in the legend (Octet BLI or flow cytometry per the methods)
binder,measurement,value
"21G6 long linker mask on VH domain (antibody, the methods give the format as IgG or scFv) VH: NFTLDRSSVLVDGYSPNRNEPLTGNSDLPGGGGSSGGPGPAGMKGLPGSQVQLQESGPGLVKPSQTLSLTCTVSGYSITSDYAWNWIRQPPGKGLEWIGYISYSGSTIYNPSLKSRISISVDTSKNQFSLKLNSVTAADTAVYYCATLGLDYWGQGTLVTVSS VL: not shown",binding result,no binding
